We go through one protein from publication PMC5515730 (Nature Structural & Molecular Biology, 2016).

This data set deals with the molecule itself. As to the kind of experiment: cryo-EM structure.

B1: HCoV-NL63 spike (S) glycoprotein ectodomain fused to a GCN4 trimerization motif (domain or fragment)
chain: FFTCNSNANLSMLQLGVPDNSSTIVTGLLPTHWFCANQSTSVYSANGFFYIDVGNHRSAFALHTGYYDANQYYIYVTNEIGLNASVTLKICKFSRNTTFDFLSNASSSFDCIVNLLFTEQLGAPLGITISGETVRLHLYNVTRTFYVPAAYKLTKLSVKCYFNYSCVFSVVNATVTVNVTTHNGRVVNYTVCDDCNGYTDNIFSVQQDGRIPNGFPFNNWFLLTNGSTLVDGVSRLYQPLRLTCLWPVPGLKSSTGFVYFNATGSDVNCNGYQHNSVVDVMRYNLNFSANSLDNLKSGVIVFKTLQYDVLFYCSNSSSGVLDTTIPFGPSSQPYYCFINSTINTTHVSTFVGILPPTVREIVVARTGQFYINGFKYFDLGFIEAVNFNVTTASATDFWTVAFATFVDVLVNVSATNIQNLLYCDSPFEKLQCEHLQFGLQDGFYSANFLDDNVLPETYVALPIYYQHTDINFTATASFGGSCYVCKPHQVNISLNGNTSVCVRTSHFSIRYIYNRVKSGSPGDSSWHIYLKSGTCPFSFSKLNNFQKFKTICFSTVEVPGSCNFPLEATWHYTSYTIVGALYVTWSEGNSITGVPYPVSGIREFSNLVLNNCTKYNIYDYVGTGIIRSSNQSLAGGITYVSNSGNLLGFKNVSTGNIFIVTPCNQPDQVAVYQQSIIGAMTAVNESRYGLQNLLQLPNFYYVSNGGNNCTTAVMTYSNFGICADGSLIPVRPRNSSDNGISAIITANLSIPSNWTTSVQVEYLQITSTPIVVDCATYVCNGNPRCKNLLKQYTSACKTIEDALRLSAHLETNDVSSMLTFDSNAFSLANVTSFGDYNLSSVLPQRNIRSSRIAGRSALEDLLFSKVVTSGLGTVDVDYKSCTKGLSIADLACAQYYNGIMVLPGVADAERMAMYTGSLIGGMVLGGLTSAAAIPFSLALQARLNYVALQTDVLQENQKILAASFNKAINNIVASFSSVNDAITQTAEAIHTVTIALNKIQDVVNQQGSALNHLTSQLRHNFQAISNSIQAIYDRLDSIQADQQVDRLITGRLAALNAFVSQVLNKYTEVRGSRRLAQQKINECVKSQSNRYGFCGNGTHIFSIVNSAPDGLLFLHTVLLPTDYKNVKAWSGICVDGIYGYVLRQPNLVLYSDNGVFRVTSRVMFQPRLPVLSDFVQIYNCNVTFVNISRVELHTVIPDYVDVNKTLQEFAQNLPKYVKPNFDLTPFNLTYLNLSSELKQLEAKTASLFQTTVELQGLIDQINSTYVDLKLLNRFENLIKRMKQIEDKIEEIESKQKKIENEIARIKKIKLVPRGSLE
modifications: N-linked glycans (glycosylation shown at 34 of 39 NXS/T sequons; paucimannosidic or high-mannose)
As a reminder, the stoichiometry N is a count of units in the complex or per binding partner. As for B1, the “stoichiometry N” value was 3.
